Test results reported in patent publication US6008019A, “Plasminogen activator from saliva of the vampire bat” (Schering Aktiengesellschaft, priority 1989, dated 1999).

Legend:
[1] = substrate: N=C(N)NCCC[C@H](NC(=O)CNC(=O)[C@@H]1CCC(=O)N1)C(=O)Nc1ccc([N+](=O)[O-])cc1; test: Km determination of amidolytic chromogenic substrates with t-PA; assay type: biochemical; conditions: other: t-PA, 3 units per hole, 100 mM Tris pH 8.0/100 mM NaCl/0.01% Tween 80, 37° C., Lineweaver-Burk plot
Description: (§1) In a 96-hole plate, respectively 90 μl of 100 mM Tris pH 8.0/100 mM NaCl/0.01% "Tween" 80 and 50 μl of the corresponding chromogenic substrate (all from Kabi Vitrum, Stockholm, Sweden) in the final concentrations of 0.03/0.06/0.1/0.3/0.6 and 1 mM are incubated with 10 μl (3 units per hole) of the corresponding plasminogen activator at 37° C., and the thus-released p-nitroaniline is determined photometrically at 405 nm at various points in time between 0-7 hours. The resultant data are evaluated with the aid of a Lineweaver-Burk plot, and the Km value is determined (Segel, I. H., Enzyme Kinetics, John Wiley and Sons, New York). The following chromogenic substrates were utilized:

[2] = substrate: N=C(N)NCCC[C@H](NC(=O)CNC(=O)[C@@H]1CCC(=O)N1)C(=O)Nc1ccc([N+](=O)[O-])cc1; test: Km determination of amidolytic chromogenic substrates with v-PA α1; assay type: biochemical, Desmodus rotundus; conditions: other: v-PA α1, 3 units per hole, 100 mM Tris pH 8.0/100 mM NaCl/0.01% Tween 80, 37° C., Lineweaver-Burk plot
Description: as §1

[3] = substrate: CC[C@@H](C)[C@@H](N)C(=O)N1CCC[C@H]1C(=O)N[C@@H](CCCNC(=N)N)C(=O)Nc1ccc([N+](=O)[O-])cc1; test: as above; assay type: biochemical, Desmodus rotundus; conditions: other: v-PA α1, 3 units per hole, 100 mM Tris pH 8.0/100 mM NaCl/0.01% Tween 80, 37° C., Lineweaver-Burk plot
Description: as §1

[4] = substrate: N=C(N)NCCC[C@H](NC(=O)CNC(=O)[C@@H]1CCC(=O)N1)C(=O)Nc1ccc([N+](=O)[O-])cc1; test: Km determination of amidolytic chromogenic substrates with v-PA β; assay type: biochemical, Desmodus rotundus; conditions: other: v-PA β, 3 units per hole, 100 mM Tris pH 8.0/100 mM NaCl/0.01% Tween 80, 37° C., Lineweaver-Burk plot
Description: as §1

[5] = substrate: CC[C@@H](C)[C@@H](N)C(=O)N1CCC[C@H]1C(=O)N[C@@H](CCCNC(=N)N)C(=O)Nc1ccc([N+](=O)[O-])cc1; test: as above; assay type: biochemical, Desmodus rotundus; conditions: other: v-PA β, 3 units per hole, 100 mM Tris pH 8.0/100 mM NaCl/0.01% Tween 80, 37° C., Lineweaver-Burk plot
Description: as §1

B1: t-PA (tissue-type plasminogen activator) (Homo sapiens) (protein)
chain: SYQVICRDEKTQMIYQQHQSWLRPVLRSNRVEYCWCNSGRAQCHSVPVKSCSEPRCFNGGTCQQALYFSDFVCQCPEGFAGKCCEIDTRATCYEDQGISYRGTWSTAESGAECTNWNSSALAQKPYSGRRPDAIRLGLGNHNYCRNPDRDSKPWCYVFKAGKYSSEFCSTPACSEGNSDCYFGNGSAYRGTHSLTESGASCLPWNSMILIGKVYTAQNPSAQALGLGKHNYCRNPDGDAKPWCHVLKNRRLTWEYCDVPSCSTCGLRQYSQPQFRIKGGLFADIASHPWQAAIFAKHRRSPGERFLCGGILISSCWILSAAHCFQERFPPHHLTVILGRTYRVVPGEEEQKFEVEKYIVHKEFDDDTYDNDIALLQLKSDSSRCAQESSVVRTVCLPPADLQLPDWTECELSGYGKHEALSPFYSERLKEAHVRLYPSSRCTSQHLLNRTVTDNMLCAGDTRSGGPQANLHDACQGDSGGPLVCLNDGRMTLVGIISWGLGCGQKDVPGVYTKVTNYLDWIRDNMRP
Km [1]: 2000 µM

B2: Desmodus rotundus saliva plasminogen activator v-PA α1 (Desmodus rotundus) (protein)
chain: AYGVACKDEITQMTYRRQESWLRPEVRSKRVEHCQCDRGQARCHTVPVNSCSEPRCFNGGTCWQAVYFSDFVCQCPAGYTGKRCEVDTRATCYEGQGVTYRGTWSTAESRVECINWNSSLLTRRTYNGRMPDAFNLGLGNHNYCRNPNGAPKPWCYVIKAGKFTSESCSVPVCSKATCGLRKYKEPQLHSTGGLFTDITSHPWQAAIFAQNRRSSGERFLCGGILISSCWVLTAAHCFQESYLPDQLKVVLGRTYRVKPGEEEQTFKVKKYIVHKEFDDDTYNNDIALLQLKSDSPQCAQESDSVRAICLPEANLQLPDWTECELSGYGKHKSSSPFYSEQLKEGHVRLYPSSRCAPKFLFNKTVTNNMLCAGDTRSGEIYPNVHDACQGDSGGPLVCMNDNHMTLLGIISWGVGCGEKDVPGVYTKVTNYLGWIRDNMHL
notes: from tissue
Km [2]: 2000 µM | Km [3]: 1000 µM

B3: Desmodus rotundus saliva plasminogen activator v-PA β (Desmodus rotundus) (protein)
chain: AYGGCSELRCFNGGTCWQAASFSDFVCQCPKGYTGKQCEVDTHATCYKDQGVTYRGTWSTSESGAQCINWNSNLLTRRTYNGRRSDAITLGLGNHNYCRNPDNNSKPWCYVIKASKFILEFCSVPVCSKATCGLRKYKEPQLHSTGGLFTDITSHPWQAAIFAQNRRSSGERFLCGGILISSCWVLTAAHCFQERYPPQHLRVVLGRTYRVKPGKEEQTFEVEKCIIHEEFDDDTYNNDIALLQLKSGSPQCAQESDSVRAICLPEANLQLPDWTECELSGYGKHKSSSPFYSEQLKEGHVRLYPSSRCTSKFLFNKTVTNNMLCAGDTRSGEIYPNVHDACQGDSGGPLVCMNDNHMTLLGIISWGVGCGEKDIPGVYTKVTNYLGWIRDNMRP
notes: from tissue
Km [4]: 2000 µM | Km [5]: 2000 µM
